This is an account of results in article PMC11134608, “UBR5 forms ligand-dependent complexes on chromatin to regulate nuclear hormone receptor stability” (Molecular cell, 2023).

Primed or numbered codes have the meaning given here. No end group written: not given here. fluorescein″ = fluorescein (FAM) label on the N-terminus (fluorescent label)

B5: RARA/RXRA heterodimer (ligand-binding domains) (complex)
chain 1: SESYTLTPEVGELIEKVRKAHQETFPALCQLGKYTTNNSSEQRVSLDIDLWDKFSELSTKCIIKTVEFAKQLPGFTTLTIADQITLLKAACLDILILRICTRYTPEQDTMTFSDGLTLNRTQMHNAGFGPLTDLVFAFANQLLPLEMDDAETGLLSAICLICGDRQDLEQPDRVDMLQEPLLEALKVYVRKRRPSRPHMFPKMLMKITDLRSISAKGAERVITLKMEIPGSMPPLIQEMLENSEGLD
chain 2: SSANEDMPVERILEAELAVEPKTETYVEANMGLNPSSPNDPVTNICQAADKQLFTLVEWAKRIPHFSELPLDDQVILLRAGWNELLIASFSHRSIAVKDGILLATGLHVHRNSAHSAGVGAIFDRVLTELVSKMRDMQMDKTELGCLRAIVLFNPDSKGLSNPAEVEALREKVYASLEAYCKHKYPEQPGRFAKLLLRLPALRSIGLKCLEHLFFFKLIGDTPIDTFLMEMLEAPHQMT
notes: LBD constructs are stated for the negative stain EM; also called RARA/RXRA^LBD; RARA/RXRA LBD heterodimer; source: E. coli BL21-CodonPlus(DE3)-RIL, purified (HisTrap, SEC); not shown: His6, N-terminal, kept

For test [1], the target named is T1, Full-length human FLAG-UBR5 (human, UniProt O95071 1-2799).
T1 construct: UBR5 (ubiquitin protein ligase E3 component n-recognin 5), human, full length; Tetramer by SEC-MALS and cryo-EM; also called ubiquitin protein ligase E3 component n-recognin 5; UBR5 tetramer, WT; source: HEK293F (Expi293 system), transient expression, purified (FLAG M2, Mono Q, Superose 6); not shown: FLAG, N-terminal, kept
In words: pull-down; FLAG-UBR5 (15 pmol) immobilised on FLAG M2 beads, 150 pmol nuclear receptor protein added with 50 μM agonist ligand (ATRA, 9-cis RA, both, estradiol or calcitriol); 25 mM HEPES pH 7.4, 125 mM NaCl, 0.05% TWEEN-20; 4°C; eluted with 3xFLAG peptide, western blot. The note with it: both partners purified.

For test [2], the target named is B5. In words: fluorescence polarisation; competitive reverse titration: tracer Flc-NCOA1 peptide 10 nM and RARA/RXRA 0.5 μM, unlabeled competitor peptides 0–85 μM; 20 mM HEPES pH 7.4, 110 mM NaCl, 500 μM TCEP, 1% glycerol, 0.1% pluronic acid, with or without 100 μM all-trans-retinoic acid; room temperature. As to conditions: both partners purified. For orientation: Polarisation of emitted light reports the rotation of a fluorescent probe.

T1 sequence (O95071 whole entry): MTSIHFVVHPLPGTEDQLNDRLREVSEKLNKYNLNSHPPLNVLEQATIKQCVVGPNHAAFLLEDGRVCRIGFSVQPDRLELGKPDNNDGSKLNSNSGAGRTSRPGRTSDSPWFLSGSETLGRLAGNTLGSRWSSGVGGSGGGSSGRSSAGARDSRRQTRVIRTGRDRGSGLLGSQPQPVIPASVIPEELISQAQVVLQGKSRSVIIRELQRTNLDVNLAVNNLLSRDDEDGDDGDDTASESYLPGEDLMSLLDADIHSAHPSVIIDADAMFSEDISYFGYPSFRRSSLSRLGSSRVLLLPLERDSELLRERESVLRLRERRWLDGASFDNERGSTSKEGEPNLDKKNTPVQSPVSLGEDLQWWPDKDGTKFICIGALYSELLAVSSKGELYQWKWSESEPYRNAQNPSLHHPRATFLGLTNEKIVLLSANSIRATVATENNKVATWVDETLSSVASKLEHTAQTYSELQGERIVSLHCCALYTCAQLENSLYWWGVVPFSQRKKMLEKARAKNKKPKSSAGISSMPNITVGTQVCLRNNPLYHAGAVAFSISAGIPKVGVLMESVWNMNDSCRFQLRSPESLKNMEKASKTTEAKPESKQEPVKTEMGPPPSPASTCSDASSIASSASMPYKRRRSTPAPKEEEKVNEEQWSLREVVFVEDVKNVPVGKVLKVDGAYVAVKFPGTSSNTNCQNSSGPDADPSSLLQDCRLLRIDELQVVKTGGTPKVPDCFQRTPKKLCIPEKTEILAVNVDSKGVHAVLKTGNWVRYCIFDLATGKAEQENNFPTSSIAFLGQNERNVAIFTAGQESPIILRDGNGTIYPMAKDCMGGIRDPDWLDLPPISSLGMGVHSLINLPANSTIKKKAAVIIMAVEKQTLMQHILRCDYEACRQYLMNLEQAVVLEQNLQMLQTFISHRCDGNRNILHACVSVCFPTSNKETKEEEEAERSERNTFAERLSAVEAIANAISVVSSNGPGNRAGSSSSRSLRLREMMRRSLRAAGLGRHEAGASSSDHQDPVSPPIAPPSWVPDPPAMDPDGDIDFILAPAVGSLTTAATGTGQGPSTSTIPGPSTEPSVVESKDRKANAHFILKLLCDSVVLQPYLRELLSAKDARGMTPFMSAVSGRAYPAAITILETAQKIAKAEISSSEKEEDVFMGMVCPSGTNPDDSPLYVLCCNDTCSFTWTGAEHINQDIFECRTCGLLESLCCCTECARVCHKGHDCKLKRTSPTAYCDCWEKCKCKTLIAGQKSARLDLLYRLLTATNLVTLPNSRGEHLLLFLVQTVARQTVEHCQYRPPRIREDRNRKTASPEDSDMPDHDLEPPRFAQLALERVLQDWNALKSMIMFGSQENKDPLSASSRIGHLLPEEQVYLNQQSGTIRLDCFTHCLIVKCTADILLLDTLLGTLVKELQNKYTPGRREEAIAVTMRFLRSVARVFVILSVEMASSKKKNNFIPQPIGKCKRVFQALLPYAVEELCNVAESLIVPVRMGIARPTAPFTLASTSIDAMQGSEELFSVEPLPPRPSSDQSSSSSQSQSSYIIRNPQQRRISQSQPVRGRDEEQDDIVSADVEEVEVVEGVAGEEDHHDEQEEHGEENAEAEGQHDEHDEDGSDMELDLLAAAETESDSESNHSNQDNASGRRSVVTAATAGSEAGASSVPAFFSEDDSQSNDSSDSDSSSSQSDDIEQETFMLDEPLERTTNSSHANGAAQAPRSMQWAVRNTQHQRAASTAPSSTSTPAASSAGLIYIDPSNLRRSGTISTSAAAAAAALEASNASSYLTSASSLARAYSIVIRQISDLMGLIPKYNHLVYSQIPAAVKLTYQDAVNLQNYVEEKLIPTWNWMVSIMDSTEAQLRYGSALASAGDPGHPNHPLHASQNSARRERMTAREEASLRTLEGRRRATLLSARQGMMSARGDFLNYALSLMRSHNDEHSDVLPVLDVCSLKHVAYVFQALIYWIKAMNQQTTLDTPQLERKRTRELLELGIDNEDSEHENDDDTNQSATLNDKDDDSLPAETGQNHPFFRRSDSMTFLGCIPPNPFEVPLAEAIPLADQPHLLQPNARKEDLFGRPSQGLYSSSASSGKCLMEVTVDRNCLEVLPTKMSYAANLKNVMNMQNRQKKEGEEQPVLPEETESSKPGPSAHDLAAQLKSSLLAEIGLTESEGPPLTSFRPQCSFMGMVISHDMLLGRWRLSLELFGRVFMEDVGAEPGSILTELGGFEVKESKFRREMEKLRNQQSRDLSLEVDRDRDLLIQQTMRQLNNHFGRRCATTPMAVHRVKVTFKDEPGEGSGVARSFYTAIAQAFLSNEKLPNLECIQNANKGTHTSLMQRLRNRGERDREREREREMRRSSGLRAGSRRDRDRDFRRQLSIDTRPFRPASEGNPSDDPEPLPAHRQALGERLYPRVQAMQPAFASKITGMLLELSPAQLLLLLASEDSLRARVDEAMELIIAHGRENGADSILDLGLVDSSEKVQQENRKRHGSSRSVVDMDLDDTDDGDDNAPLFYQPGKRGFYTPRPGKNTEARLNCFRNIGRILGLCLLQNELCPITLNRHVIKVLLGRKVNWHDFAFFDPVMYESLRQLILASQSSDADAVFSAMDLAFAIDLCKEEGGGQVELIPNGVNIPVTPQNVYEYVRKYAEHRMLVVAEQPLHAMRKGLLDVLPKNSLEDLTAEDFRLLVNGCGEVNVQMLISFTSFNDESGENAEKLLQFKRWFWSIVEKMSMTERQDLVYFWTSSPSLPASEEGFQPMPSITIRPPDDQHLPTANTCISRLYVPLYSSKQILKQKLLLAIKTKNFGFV

B1: His-tagged ER ligand-binding domain (aa301-552) (domain or fragment, UniProt P03372 301-552, looked up)
chain: SKKNSLALSLTADQMVSALLDAEPPILYSEYDPTRPFSEASMMGLLTNLADRELVHMINWAKRVPGFVDLTLHDQVHLLECAWLEILMIGLVWRSMEHPGKLLFAPNLLLDRNQGKCVEGMVEIFDMLLATSSRFRMMNLQGEEFVCLKSIILLNSGVYTFLSSTLKSLEEKDHIHRVLDKITDTLIHLMAKAGLTLQQQHQRLAQLLLILSHIRHMSNKGMEHLYSMKCKNVVPLYDLLLEMLDAHRLHAP
notes: also called estrogen receptor; source: E. coli BL21-CodonPlus(DE3)-RIL, purified (HisTrap, SEC); not shown: His6, N-terminal, kept
On to B1, for which, in test [1], the binding result was “binds”.

B2: Fluorescein-labelled NCOA1 peptide residues 687–698 (Flc-ARHKILHRLLQEGS) (peptide)
peptide: {fluorescein″}-ARHKILHRLLQEGS
notes: NCOA1 LxxLL peptide, printed as residues 687-698; also called Fluorescein NCOA1 peptide aa687-698; source: synthetic peptide; bought: Peptides & Elephants
Turning to B2, the binding result in test [2] is “binds”.

B3: VDR aa118-427 (recombinant) (domain or fragment, UniProt P11473 118-427, looked up)
chain: DSLRPKLSEEQQRIIAILLDAHHKTYDPTYSDFCQFRPPVRVNDGGGSHPSRPNSRHTPSFSGDSSSSCSDHCITSSDMMDSSSFSNLDLSEEDSDDPSVTLELSQLSMLPHLADLVSYSIQKVIGFAKMIPGFRDLTSEDQIVLLKSSAIEVIMLRSNESFTMDDMSWTCGNQDYKYRVSDVTKAGHSLELIEPLIKFQVGLKKLNLHEEEHVLLMAICIVSPDRPGVQDAALIEAIQDRLSNTLQTYIRCRHPPPGSHLLYAKMIQKLADLRSLNEEHSKQYRCLSFQPECSMKLTPLVLEVFGNEIS
notes: also called vitamin D receptor; source: E. coli BL21-CodonPlus(DE3)-RIL, purified (HisTrap, SEC)
For B3, the binding result in test [1] was “binds”.

B4: His-tagged RARA ligand-binding domain (aa175-421) (domain or fragment, UniProt P10276 175-421, looked up)
chain: SESYTLTPEVGELIEKVRKAHQETFPALCQLGKYTTNNSSEQRVSLDIDLWDKFSELSTKCIIKTVEFAKQLPGFTTLTIADQITLLKAACLDILILRICTRYTPEQDTMTFSDGLTLNRTQMHNAGFGPLTDLVFAFANQLLPLEMDDAETGLLSAICLICGDRQDLEQPDRVDMLQEPLLEALKVYVRKRRPSRPHMFPKMLMKITDLRSISAKGAERVITLKMEIPGSMPPLIQEMLENSEGLD
notes: no cleavage of the His6-Smt3 fusion is described, and the protein is called His-tagged in the pull-downs, so Smt3 was probably still on; also called His-RARA; RARA LBD; source: E. coli BL21-CodonPlus(DE3)-RIL, purified (HisTrap, SEC); not shown: His6, N-terminal, kept
Consider B4, for which the binding result in test [1] is given as “binds”. On the same count and under the same terms, to B5 belongs “binds”.
